Experimental data: paper PMC3046144

Biological target: H5N1 A/Vietnam/1203/2004 HA1 (1-330) protein from 293 Flp-In cells (influenza A virus A/Vietnam/1203/2004 (H5N1))
Assay: SEC

## H5N1 A/Vietnam/1203/2004 HA1 (1-330) protein from 293 Flp-In cells (domain or fragment)
  stoichiometry N: 3
